The text below walks through data of patent US20220267469A1 (LIPUM, published 2022).

Sequences and labels used below:
B1: Human BSSL (bile salt-stimulated lipase), native (enzyme)
chain: AKLGAVYTEGGFVEGVNKKLGLLGDSVDIFKGIPFAAPTKALENPQPHPGWQGTLKAKNFKKRCLQATITQDSTYGDEDCLYLNIWVPQGRKQVSRDLPVMIWIYGGAFLMGSGHGANFLNNYLYDGEEIATRGNVIVVTFNYRVGPLGFLSTGDANLPGNYGLRDQHMAIAWVKRNIAAFGGDPNNITLFGESAGGASVSLQTLSPYNKGLIRRAISQSGVALSPWVIQKNPLFWAKKVAEKVGCPVGDAARMAQCLKVTDPRALTLAYKVPLAGLEYPMLHYVGFVPVIDGDFIPADPINLYANAADIDYIAGTNNMDGHIFASIDMPAINKGNKKVTEEDFYKLVSEFTITKGLRGAKTTFDVYTESWAQDPSQENKKKTVVDFETDVLFLVPTEIALAQHRANAKSAKTYAYLFSHPSRMPVYPKWVGADHADDIQYVFGKPFATPTGYRPQDRTVSKAMIAYWTNFAKTGDPNMGDSAVPTHWEPYTTENSGYLEITKKMGSSSMKRSLRTNFLRYWTLTYLALPTVTDQEATPVPPTGDSEATPVPPTGDSETAPVPPTGDSGAPPVPPTGDSGAPPVPPTGDSGAPPVPPTGDSGAPPVPPTGDSGAPPVPPTGDSGAPPVPPTGDSGAPPVPPTGDAGPPPVPPTGDSGAPPVPPTGDSGAPPVTPTGDSETAPVPPTGDSGAPPVPPTGDSEAAPVPPTDDSKEAQMPAVIRF
notes: Native full-length protein purified from human milk (Astra Hässle AB); also called hBSSL; non-biotinylated human BSSL

Experiment [1] deals with AS20 scFv. Kind of experiment: HTRF competition against 5 nM b-hBSSL for 2.5 nM AS20 scFv. The protocol: In order to study the interaction between AS20 scFv and native mouse BSSL, a competition assay was developed. Detection of binding was enabled through donor molecule terbium-conjugated α-FLAG antibody (Cisbio #611FG2TL), which interacts with the C-terminal located FLAG-tag of the scFv, and acceptor molecule streptavidin-conjugated XL665 (Cisbio #610SAXL), which interacts with the biotin-moieties on human BSSL.
2.5 nM of AS20 scFv was pre-incubated for 2 hours with the mouse or human orthologue of BSSL, after which 5 nM b-hBSSL and the FRET donor and acceptor molecules were added. The mixture was finally incubated at room temperature for 16 hours and the binding signal (665 nm) and background/noise signal (615 nm) was measured using EnVision (PerkinElmer). The experimental output, Delta R, was calculated for each point using four replicates and two blanks.
A general note: Time-resolved FRET reads energy transfer from a long-lived donor to a nearby acceptor.

Experiment [2] has as its target B1. Put plainly: SPR single cycle kinetics, antibody immobilised. As for the experimental part:
(§1) Single cycle kinetics was used to measure the affinity of the antibodies. AS20 hIgG1 LALA-PG and anti-NP hIgG1 LALA-PG were immobilized on a CM5 S sensor chip by primary amine coupling using NHS-EDC chemistry. Five different concentrations of antigen (1:3 dilutions starting from 50 nM for hBSSL and 1:2 dilutions starting from 800 nM for mBSSL) were injected over the surface. The sensor chip surface was regenerated with 10 mM glycine-HCl pH 2.1. Obtained single cycle kinetic data was fitted to a Langmuir 1:1 binding model and kinetic parameters were retrieved using the software BlAevaluation. For mBSSL, a steady state analysis was also performed by plotting the response level at equilibrium against each concentration, and KD values were retrieved by the BlAevalution software.
A single cycle kinetic SPR approach was used to determine the affinity of the IgG.

Experiment [3] deals with T1, Mouse BSSL, recombinant (mouse, UniProt Q64285 21-599).
T1 construct: Bought (R&D Systems, Cat. no 5658-CE); also called mBSSL; murine BSSL
T1 sequence: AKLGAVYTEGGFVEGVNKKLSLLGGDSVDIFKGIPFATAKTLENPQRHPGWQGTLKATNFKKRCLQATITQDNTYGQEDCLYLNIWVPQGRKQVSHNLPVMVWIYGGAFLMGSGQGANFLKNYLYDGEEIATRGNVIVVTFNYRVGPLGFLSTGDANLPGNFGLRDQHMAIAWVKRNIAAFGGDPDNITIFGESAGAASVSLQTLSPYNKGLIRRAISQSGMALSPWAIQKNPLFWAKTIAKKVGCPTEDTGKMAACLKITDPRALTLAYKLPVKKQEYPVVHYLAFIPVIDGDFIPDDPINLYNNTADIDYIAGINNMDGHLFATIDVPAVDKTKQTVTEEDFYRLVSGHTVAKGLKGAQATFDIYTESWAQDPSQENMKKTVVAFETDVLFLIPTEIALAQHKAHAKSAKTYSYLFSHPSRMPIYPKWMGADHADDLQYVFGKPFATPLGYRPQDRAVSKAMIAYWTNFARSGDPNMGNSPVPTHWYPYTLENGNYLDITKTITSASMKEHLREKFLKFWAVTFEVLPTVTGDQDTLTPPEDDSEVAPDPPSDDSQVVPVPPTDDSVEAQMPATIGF
Kind of experiment: SPR steady state, antibody immobilised. As for the experimental part: as §1

The target of experiment [4] is B1. Kind of experiment: SPR single cycle kinetics, captured by anti-Fab, Absolute Antibody batch. As for the experimental part: Kinetic parameters of the hIgG4 S228P clones were determined by SPR using BIACORE® T200 (GE Healthcare). An anti-Fab antibody (GE #28958325) was immobilized on a CM5 S sensor chip by primary amine coupling using NHS-EDC chemistry. The hIgG4 antibodies were captured by the anti-Fab antibody, and subsequently, five different concentrations of hBSSL (1:5 dilutions, 0.08-50 nM) or mBSSL (1:2 dilutions, 50-800 nM) were injected over the surface. The sensor chip surface was regenerated with 10 mM glycine-HCl pH 2.1. For binding to human BSSL, single cycle kinetic data was fitted to a 1:1 binding model and kinetic parameters were retrieved using software BlAevaluation. For mouse BSSL, a steady state analysis was performed by plotting the response level at equilibrium against each concentration, and KD values were retrieved by the BlAevalution software.

In experiment [5] the target is B1. Put plainly: SPR single cycle kinetics, hIgG4 S228P captured by anti-Fab. In outline: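 hIgG4 S228P captured on an immobilized anti-Fab surface; five BSSL concentrations injected, 1:5 dilutions from 50 nM (human) or from 500 nM (mouse). Human BSSL: single-cycle kinetics, 1:1 fit. Mouse BSSL: KD from steady-state equilibrium response versus concentration. Regeneration with 10 mM glycine-HCl pH 2.1.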

Experiment [6] concerns the target T1, Mouse BSSL, recombinant. Put plainly: SPR steady state, hIgG4 S228P captured by anti-Fab; in-house production batch (Example 9); Table 12 marks this value # as unreliable. As for the experimental part:
Kinetic parameters of the hIgG4 S228P clones were determined by SPR using BIACORE® T200 (GE Healthcare). Single cycle kinetics was used to measure the affinity of the purified hIgG4 molecules to human and mouse BSSL. An anti-Fab antibody (GE Healthcare, #28958325) was immobilized on a CM5 S sensor chip by primary amine coupling using NHS-EDC chemistry. hIgG4 was captured by the anti-Fab antibody, and subsequently, five different concentrations of hBSSL (1:5 dilutions starting from 50 nM) or mBSSL (1:5 dilutions starting from 500 nM) were injected over the surface. The sensor chip surface was regenerated with 10 mM glycine-HCl pH 2.1. For binding to human BSSL, single cycle kinetic data was fitted to a 1:1 binding model and kinetic parameters were retrieved using software BlAevaluation. For mouse BSSL, a steady state analysis was performed by plotting the response level at equilibrium against each concentration, and KD values were retrieved by the BlAevalution software.

The target of experiment [7] is T2, Biotinylated human BSSL (human, UniProt P19835 21-753, Biotinylated on glycosacarides, 30-40 biotin/BSSL).
T2 construct: hBSSL biotinylated in house; also called b-hBSSL; human BSSL-biotin
T2 sequence: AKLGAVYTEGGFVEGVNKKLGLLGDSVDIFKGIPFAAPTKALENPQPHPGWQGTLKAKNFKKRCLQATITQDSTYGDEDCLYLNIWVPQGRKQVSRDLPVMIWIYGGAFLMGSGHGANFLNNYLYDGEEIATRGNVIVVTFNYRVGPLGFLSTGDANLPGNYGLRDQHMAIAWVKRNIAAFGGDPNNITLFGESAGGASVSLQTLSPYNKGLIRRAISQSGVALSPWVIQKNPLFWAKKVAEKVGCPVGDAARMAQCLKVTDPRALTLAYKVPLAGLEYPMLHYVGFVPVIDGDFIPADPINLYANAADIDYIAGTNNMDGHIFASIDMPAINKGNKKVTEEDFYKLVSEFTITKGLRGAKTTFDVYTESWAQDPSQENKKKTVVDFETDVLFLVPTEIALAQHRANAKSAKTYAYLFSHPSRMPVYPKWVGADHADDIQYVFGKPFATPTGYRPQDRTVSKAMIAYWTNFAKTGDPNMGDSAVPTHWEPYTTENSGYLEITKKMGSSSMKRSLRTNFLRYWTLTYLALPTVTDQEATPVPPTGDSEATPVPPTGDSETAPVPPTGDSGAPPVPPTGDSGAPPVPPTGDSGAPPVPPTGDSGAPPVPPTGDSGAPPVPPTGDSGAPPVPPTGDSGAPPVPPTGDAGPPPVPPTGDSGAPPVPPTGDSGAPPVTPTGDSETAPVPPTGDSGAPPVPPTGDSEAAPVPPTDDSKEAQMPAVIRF
Put plainly: flow cytometry displacement assay; 3.0 ug antibody, 1 ug b-hBSSL. In outline:
(§2)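 Antibody (0.5–3.0 μg per reaction) preincubated with 1 μg biotinylated human BSSL in PBS pH 7.4, 30 min at 4 °C, then with human buffy coat 30 min at 4 °C. After erythrocyte lysis/fixation, bound BSSL on CD14+ monocytes detected by labelled streptavidin via flow cytometry.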
A general note: A flow cytometer gives signals particle by particle.

Experiment [8] has as its target B1. Put plainly: cell-based or functional assay.
For experiment [9], the target named is T2, Biotinylated human BSSL. Kind of experiment: flow cytometry displacement assay; 1.5 ug antibody, 1 ug b-hBSSL. In outline: as §2
The target in experiment [10] is B1. Kind of experiment: cell-based or functional assay. The source holds these as a separate data set.

In general, IC50 refers to the concentration that gives 50% inhibition. Low readings indicate inhibition by little substance, high ones a need for much substance. One may read the Kd as the equilibrium constant for the complex coming apart.

In turn, B1 registered an IC50 in [1] of approximately 2 nM.

B2: AS20 hIgG1 LALA-PG (antibody)
heavy: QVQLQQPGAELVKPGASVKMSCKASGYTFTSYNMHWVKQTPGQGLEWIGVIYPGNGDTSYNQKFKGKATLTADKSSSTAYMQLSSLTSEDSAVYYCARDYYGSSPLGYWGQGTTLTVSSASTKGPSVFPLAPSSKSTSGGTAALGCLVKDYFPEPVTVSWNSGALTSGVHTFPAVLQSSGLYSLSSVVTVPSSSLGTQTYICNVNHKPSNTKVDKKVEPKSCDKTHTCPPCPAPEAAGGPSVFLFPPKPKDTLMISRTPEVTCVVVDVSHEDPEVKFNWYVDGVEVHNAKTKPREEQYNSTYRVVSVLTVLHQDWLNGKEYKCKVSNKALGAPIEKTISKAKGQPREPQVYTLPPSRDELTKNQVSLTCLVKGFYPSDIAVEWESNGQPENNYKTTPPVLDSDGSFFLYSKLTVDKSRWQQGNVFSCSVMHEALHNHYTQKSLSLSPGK
light: QIVLTQSPAVMSASPGEKVTMTCSASSSISYMHWYQQKPGTSPKRWIYDTSKLASGVPARFSGSGSGTSYSLTISSMEAEDAATYYCHQRSSYPTFGGGTKLEIKRTVAAPSVFIFPPSDEQLKSGTASVVCLLNNFYPREAKVQWKVDNALQSGNSQESVTEQDSKDSTYSLSSTLTLSKADYEKHKVYACEVTHQGLSSPVTKSFNRGEC
notes: also called AS20 IgG1 LALA-PG
For B2, the Kd in experiment [2] worked out at 0.91 nM; in experiment [3], 361 nM.

B3: S-SL048-106 hIgG4 S228P (antibody, V domains shown)
VH: QVQLVQSGAEVKKPGASVKVSCKASGYTFTSYNMHWVRQAPGQGLEWIGVIYPGDGSTSYNQKFQGRVTMTRDTSTSTVYMELSSLRSEDTAVYYCARDYYGSSPLGYWGQGTLVTVSS
VL: DIQMTQSPSSLSASVGDRVTITCSASSSISYMNWYQQKPGKAPKLLIYATSKLPSGVPSRFSGSGSGTDFTLTISSLQPEDFATYYCHQRSSTPTFGQGTKLEIKR
notes: also called mAb106
On to B3, for which the Kd in experiment [4] is 1.2 nM. Besides, the Kd in experiment [5] is 1.2 nM. Moreover, the Kd in [6] was found to be 111 nM. The “percentage reduction of b-hBSSL binding to CD14+ monocytes” value in experiment [7] is 61%. In experiment [8], the “BSSL hydrolysis of cholesterol esters, relative value (no antibody = 100%); 0.19 ug antibody” value worked out at 94.8%; the “BSSL hydrolysis of cholesterol esters, relative value (no antibody = 100%); 0.38 ug antibody” value was 97.2%; the “BSSL hydrolysis of cholesterol esters, relative value (no antibody = 100%); 0.75 ug antibody” value came to 93.9%; the “BSSL hydrolysis of cholesterol esters, relative value (no antibody = 100%); 1.5 ug antibody” value worked out at 95.3%. In addition, in [8], the “BSSL hydrolysis of cholesterol esters, relative value (no antibody = 100%); 3.0 ug antibody” value was 99% and the “BSSL hydrolysis of cholesterol esters, relative value (no antibody = 100%); 6.0 ug antibody” value came out at 90.5%. The “percentage reduction of b-hBSSL binding to CD14+ monocytes” value in [9] was 52%. Moreover, in experiment [10], the “BSSL hydrolysis of triglycerides, relative value (no antibody = 100%); 0.19 ug antibody” value was 109%; the “BSSL hydrolysis of triglycerides, relative value (no antibody = 100%); 0.38 ug antibody” value is 123%; the “BSSL hydrolysis of triglycerides, relative value (no antibody = 100%); 0.75 ug antibody” value worked out at 129%; the “BSSL hydrolysis of triglycerides, relative value (no antibody = 100%); 1.5 ug antibody” value is 120%. For the same molecule, in experiment [10], the “BSSL hydrolysis of triglycerides, relative value (no antibody = 100%); 3.0 ug antibody” value was 99.2% and the “BSSL hydrolysis of triglycerides, relative value (no antibody = 100%); 6.0 ug antibody” value came to 104%.
